Substitutions are numbered along the chain they refer to.
T1: thermolysin-cleaved EBOV GP on Jurkat-GP cells (cleaved GP) (Zaire ebolavirus, Makona (GP1 core …, strain))
T1 chain 1: not shown
T1 chain 2: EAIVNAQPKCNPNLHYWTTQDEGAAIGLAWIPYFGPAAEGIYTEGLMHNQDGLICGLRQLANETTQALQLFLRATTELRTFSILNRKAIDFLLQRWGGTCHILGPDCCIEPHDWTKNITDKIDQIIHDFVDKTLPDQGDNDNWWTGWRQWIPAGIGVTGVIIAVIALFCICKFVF

B1: 5.6.c3191 (antibody, V domains shown)
VH: QVQLAQSGAEVKKPGASVKVSCKSSGYNFTTHGFNWVRQVPGQGLEWMGWISAYNADTNYAQKFQGRLTLTTETSSNTAYMELRSLTSDDTAVYYCARGEEYSTLYFYGMDVWGQGTTVTVSS
VL: DIQMTQSPSSVSASVGDRVTITCRASQGISIWLAWYQQKPGKAPKLLIYGASTLQSGVPSRFSGSGSGADYTLTINSLQPEDFATYFCQQAHSFPYTFGQGTKLEIR
B2: 5.6.c3197 (antibody, V domains shown)
VH: QVQVVESGGGVVQPGKSLRLSCAASGFTFSSYGMHWVRQAPGKGLEWVAFIAYDGSNEYYADSVKGRFTISRDNSKITLYLQMNSLRAEDTAMYYCAKEGAGHDALYYYGMDVWGQGTTVTVSS
VL: DIQMTQSPSSVSASVGDRVTITCRASQGISFWLAWYQQKPGKAPELLISAASSLQSGVPSRFSGSGSGTDFTLTISSLQPEDFATYYCLQAHSFPYTFGQGTKLEIK
B3: 5.6.c3206 (antibody, V domains shown)
VH: QVQLKESGPGLVKPSQTLSLTCSVSGGAISNGGYCYTWIRQRPGKGLESIGYMHYSGSPYYNPSLKSRVTIYVDTSKNQFSLKLSSVTAADTAVYYCARGLLWFGESPFYYFDYWGQGTLVTVSS
VL: QSVLTQPPSVSGAPGQRVTISCTGSSSNIGAGYDVHWYQQLPGTAPKLLIYGNSNRPSGVPDRFSGSKSGTSASLAITGLQAEDEADYYCQSCDSSLSVVFGGGTKLTVL
B4: 5.6.c3221 (antibody, V domains shown)
VH: QEELVESGGGVVQPGRSLRLSCAASTFTFSIYAMHWVRQAPGKGLEWVAVISYDGSNRYYADSVKGRFTISRDNSKNTVYLQMNSLRAEDTAVYFCAKDLGSNGWYYFDSWGQGTLVTVSS
VL: EIVLTQSPGTLSLSPGERATLSCRASQSVSSRYLAWYQQKPGQAPRLLIYGVSSRATGVPDRFSGSGSGTDFTLTISRLEPEDFAVYYCQHYGSSPWRPFGQGTKLEIK
B5: 5.6.c3225 (antibody, V domains shown)
VH: EVQLVESGGGLVKPGGSLRLSCAASGFTFSSYTMNWVRQAPGKGLEWVSFISSTSRYIHYADSVKGRFTISRDNAKNSLFLQINSLRDEDTAVYFCARESVDDTSMLYYGLDVWGQGTTVTVSS
VL: DIQMTQSPSSLSASVGGRVTITCRASQSISSSLSWYQQKPGKAPKFLIYGASTLESGVPSRFSGSGSGTDFTLTISSLQPEDFATYFCQQSHSLPWTFGQGTKVEIK
B6: 5.6.c3236 (antibody, V domains shown)
VH: QVQLLESGPGLVKPSETLSLTCAVSGGSVSSNTHFWSWIRQPPGKGLEWIGYTLSSGSTAYNPSLKSRVSLSVDTSKNHFSLKLTSVTAADTAVYYCAGTVIQGVVSFDWFDPWGQGTLVTVSS
VL: DIQMTQSPSSLSASVGDRVTITCRASQSINSYLNWYQQRPGKAPKLLIYTTSNLQSGVPSRFSGSGSGTDFTLTISSLQPEDFATYYCQQSYSTPLTFGGGTKVEIK
B7: 5.6.c3250 (antibody, V domains shown)
VH: QVQLVESGGGLVKPGGSLRLSCAASGFTFSDYDMSWIRQAPGKGLEWISYISSSGTTIYDADSVKGRFTISRDNAKNSLSLQVNSLRAEDTAVYYCARNVEQIVGATLDYWGQGTLVTVSS
VL: EIVLTQSPATLSLSPGERATLSCRASQSISSFLAWYQQKLGQAPRLLIFDASNRATGIPARFSGSGSGTDFTLTISSLEPEDFAVYYCHHWTFGQGTKVEIK
B8: 5.6.c3295 (antibody, V domains shown)
VH: EVQLVESGGDLVQPGGSLRLSCAASGFTVNANYLGWVRQTPGKGLEWVSLIYSGSGSTYYADSVKGRFTLSRDSSKNTLFLHMNSLRPEDTAVYYCARAGGCGGDCYSYYFDYWGRGTLVTVSS
VL: DIQMTQSPSTLSASVGDRVTITCRASQSISRWLAWYQQKPGKAPKLLIYRASSLQNGVPSRFSGSGSGTEFTLTISGLQPDDFGIYYCQEYSSRYTFGQGTQLEIK
B9: 5.6.c3360 (antibody, V domains shown)
VH: EVQVVESGGGLVKPGGSLRLSCAASGFSFSIYSMNWVRQAPGKGLEWVSSITGSSSYTNYAGSVKGRFTISRDNAKNSLYLQMNSLRADDTAVYYCARDGAVDTDIYYYGMDVWGQGTTVTVSS
VL: B2 VL with S10F, V15I, G28D, F31S, E45T, S49Y, A51T, S53T, Y96R, K103Q
B10: 5.6.c3362 (antibody, V domains shown)
VH: QLQLQQSGPGLVKPSETLSLTCNVSGGSISSSSTYSWGWIRQPPGKGLEWIGNIYYSGSTYYNPSLKSRVTISVDTSKNQFSLKLSSVTAADTAVYYCARSFRGPTGAFYYYSYAMDVWGRGTTVTVSS
VL: SSELTQDPAVSVALGQTVRITCQGDSLRTYYASWYQQKPGQAPVLVIYGKKNRPSGIPDRFSGSSSGNTASLTITGAQAEDEADYYCNSQDSSGDLVLFGGGTKVTAL
B11: 5.6.c3397 (antibody, V domains shown)
VH: QVQLQESGPGLVKPSETLSLTCTVSGGSISTYYWSWIRQTPGKGLECIGYINYFGSTNYNPSLKSRVTISIDTSKNQFSLKLSSVTAADTAVYYCARHYGVGTYSGGWFDPWGQGTLVTVSS
VL: DIQMTQSPSSLSASVGDRVTVTCRASQRINSFLNWYQQKPGKAPKLLIYAASSLQSGVPSRFSGTGSGTDFTLTISSLQPEDFATYYCQQSYSSPRTFGQGTKVEIR
B12: 5.6.c3412 (antibody, V domains shown)
VH: QIQLVESGGGVVQPVRSLRLTCAASGFTFSQYGMHWVRQAPGKGLEWVAVISYDGTQKYYSDSVKGRFTISRDNAKNTLSLQMNGLRAEDTAVYYCAKGFLERNFDLWSGSYSDSGWRGPYYGMDFWGQGTTVIVSS
VL: QTVVTQEPSFSVSPGGTVTITCALSSGSVSASLYPSWYQQTPGQAPRTLIYSTNTRSSGVPDRFSGSILGNKAALTITGAQADDESDYYCVLFMSSGIYVFGTGTKVTVL
B13: 5.6.c3479 (antibody, V domains shown)
VH: QVHLVESGGGLVKPGGSLRLSCSVSGFAFSDYYMTWIRQAPGKGLEWVSYISGDGGSIYYADSVKGRFTISRDNAKKSLYLQLNSLRADDTAVYYCARDRCDRDQLLCYYYYGMDVWGQGTTVTVSS
VL: QSVLTQPPSVSAAPGQKVTISCSGSSSNIGNNYVSWYQQLPGTAPKLLIYDNNKRPSGIPDRFSGSKSGTSATLDITGLQTGDEADYYCGTWDNSLIAGVFGGGTKLTVL
B14: 5.6.c3507 (antibody, V domains shown)
VH: EVQLVESGGGVVQPGGSLRLSCAASGFTFDDYGMHWVRQAPGKGLEWVSFISGDGYSTYYGDSVKGRFTISRDKSKNSLYLQMNSLRTEDTAFYYCAKDGGSTLTTLLYNWFDSWGQGTLVTVSS
VL: B6 VL with S31M, R39K, L46V, T50G, T51A, N53S, T94I, L96V, G100P, E105D

Target: T1, thermolysin-cleaved EBOV GP on …

Binder	binding result
B1	binds
B2	binds
B3	binds
B4	binds
B5	binds
B6	binds
B7	binds
B8	binds
B9	binds
B10	binds
B11	binds
B12	binds
B13	binds
B14	binds

Target: EBOV GP ectodomain residues 1-636 (GPec) (Zaire ebolavirus, strain  …, UniProt Q05320)

Binder	binding result
B1	binds
B2	binds
B3	binds
B4	binds
B5	binds
B6	binds
B7	binds
B8	binds
B9	binds
B10	binds
B11	binds
B12	binds
B13	binds
B14	binds
